The values that follow come from paper PMC10954369.

The series concerns the target T1, GST-JunB (mouse, UniProt P09450 1-344).
T1 sequence: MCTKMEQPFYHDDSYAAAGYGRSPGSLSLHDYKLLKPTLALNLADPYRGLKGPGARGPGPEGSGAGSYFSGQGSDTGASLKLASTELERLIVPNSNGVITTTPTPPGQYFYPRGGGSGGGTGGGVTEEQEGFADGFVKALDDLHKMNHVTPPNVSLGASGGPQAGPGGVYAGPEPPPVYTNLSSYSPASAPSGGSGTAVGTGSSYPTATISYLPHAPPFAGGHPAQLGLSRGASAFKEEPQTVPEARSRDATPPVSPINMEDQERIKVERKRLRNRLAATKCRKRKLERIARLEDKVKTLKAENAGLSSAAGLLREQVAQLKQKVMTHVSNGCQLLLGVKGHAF
The series can be described thus: EMSA. In general terms: A gel shift assay detects complexes by their altered migration in electrophoresis.

B1: Erra promoter TRE probe WT (-1305/-1315) (dsDNA)
DNA 1: AGTGAGTGACTCAGAGGACTT
DNA 2: AAGTCCTCTGAGTCACTCACT
Take B1: the binding result is “binds”.
